The chains are these.
B1: mAb7.0 Fab (Fab, V domains shown)
VH: QVQLVESGGGVVQPGRSLRLSCAASGFTFSSYGMHWVRQAPGKGLEWVAVISYGGSERYYADSVKGRFTISRDNSKNTLYLQMNSLRAEDTAVYYCAREPWYSSRGWTGYGFDVWGQGTLVTVSS
VL: EIVLTQSPGTLSLSPGERATLSCRASQSVSSNYLAWYQQKPGQAPKLLIYSASSLQSGVPSRFSGSGSGTDFTLTISSLQPEDFATYYCQQTYSYPPTFGQGTKVEIK
B2: mAb6.0 Fab (Fab, V domains shown)
VH: QLQLQESGPGLVKPSETLSLTCTVSGGSITSSNYYWGWIRQPPGKGLEWIGSIDYTGSTYYNPSLKSRVTISVDTSKNQFSLKLSSVTAADTAVYYCARGKYYETYLGFDVWGQGTLVTVSS
VL: QSVLTQPPSVSGAPGQRVTISCTGSSSNIGAGYDVHWYQQLPGTAPKLLIYGNTNRPSGVPDRFSGSKSGTSASLAITGLQAEDEADYYCQSYDISLSGWVFGGGTKLTVL
B3: mAb8.0 Fab (Fab, V domains shown)
VH: QVQLVQSGAEVKKPGSSVKVSCKASGGTFSNYAISWVRQAPGQGLEWMGGILPILGTVDYAQKFQGRVTITADESTSTAYMELSSLRSEDTAVYYCAREPWYRLGAFDVWGQGTLVTVSS
VL: DIQMTQSPSSLSASVGDRVTITCRASQTIYKYLNWYQQKPGKAPKLLIYAASSLQSGVPSRFSGSGSGTDFTLTISSLQPEDFATYYCQQYSSIPYTFGQGTKVEIK
B4: mAb2.0 Fab (Fab, V domains shown)
VH: QLQLQESGPGLVKPSETLSLTCTVSGGSISTSSYYWGWIRQPPGKGLEWIGSIYYTGNTYYNPSLKSRVTISVDTSKNQFSLKLSSVTAADTAVYYCARVRYGVGVPRYFDPWGQGTLVTVSS
VL: B2 VL with G32H, T54D, I95Y, W100Y
B5: mAb5.0 Fab (Fab, V domains shown)
VH: EVQLLESGGGLVQPGGSLRLSCAASGFTFSTYAMSWVRQAPGKGLEWVSGISGGSGYTYYADSVKGRFTISRDNSKNTLYLQMNSLRAEDTAVYYCARVVTYRDPPASFDYWGQGTLVTVSS
VL: B2 VL with G32H, T54D, I95Y, S98K, G99A, W100Y
B6: mAb4.0 Fab (Fab, V domains shown)
VH: QLQLQESGPGLVKPSETLSLTCTVSGGSIGSRSYYWGWIRQPPGKGLEWIGSIHYSGTTYYNPSLKSRVTISVDTSKNQFSLKLSSVTAADTAVYYCARVAPSYPRVFDYWGQGTLVTVSS
VL: B2 VL with T54R, I95Y, S98R, G99V, W100Y
B7: mAb3.0 Fab (Fab, V domains shown)
VH: B4 VH with T31S, S32T, Y54H, T56S, R101H, V104G, G105Y, V106I, Y109R, P112H
VL: B2 VL with I95Y, S98R, W100Y
B8: mAb1.0 Fab (Fab, V domains shown)
VH: QVQLVESGGGVVQPGRSLRLSCAASGFSFSAYAMHWVRQAPGKGLEWVAVISYDGTNEYYADSVKGRFTISRDNSKNTLYLQMNSLRAEDTAVYYCARGIRIFTSYFDSWGQGTLVTVSS
VL: B2 VL with G32H, G52S, T54N, I95Y, S98R, W100Y

Substitutions are numbered along the chain they refer to.

For one assay, the target named is hu-IL-36γ (human) (UniProt Q9NZH8). The assay can be described thus: ELISA, yeast Fab supernatant.
Chain of hu-IL-36γ (human) (Q9NZH8 18-169 limits assumed): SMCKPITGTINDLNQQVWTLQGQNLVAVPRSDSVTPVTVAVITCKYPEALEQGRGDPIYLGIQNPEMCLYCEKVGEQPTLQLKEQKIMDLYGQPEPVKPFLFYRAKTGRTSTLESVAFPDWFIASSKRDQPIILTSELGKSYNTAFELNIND
Turning to B1, the ELISA OD450 was 0.0724 OD450. Consider B2, for which the ELISA OD450 amounted to 0.0656 OD450. B3 displayed an ELISA OD450 of 0.073 OD450.

The target of a further assay is T1, hu-IL-36β (human).
T1 sequence: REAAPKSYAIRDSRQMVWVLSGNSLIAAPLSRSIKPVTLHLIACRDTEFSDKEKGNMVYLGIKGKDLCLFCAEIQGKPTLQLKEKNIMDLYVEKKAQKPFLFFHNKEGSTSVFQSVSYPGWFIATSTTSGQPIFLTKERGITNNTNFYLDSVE
The experiment in a line: ELISA, yeast Fab supernatant. Background: ELISA stands for enzyme-linked immunosorbent assay.
On to B4, for which the ELISA OD450 was determined as 0.0604 OD450. B5 returned an ELISA OD450 of 0.129 OD450. As for B6, the ELISA OD450 came out at 0.0513 OD450. Molecule B7 returned an ELISA OD450 of 0.11 OD450. With B8, the ELISA OD450 is 0.0523 OD450.

The target of another assay is hu-IL-36α (human) (UniProt Q9UHA7). The assay can be described thus: ELISA, yeast Fab supernatant.
Chain of hu-IL-36α (human) (Q9UHA7 6-158 limits assumed): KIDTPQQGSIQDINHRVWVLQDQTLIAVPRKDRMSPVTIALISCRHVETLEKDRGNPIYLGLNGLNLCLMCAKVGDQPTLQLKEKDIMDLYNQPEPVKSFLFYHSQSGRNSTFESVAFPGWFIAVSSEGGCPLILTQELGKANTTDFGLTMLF
B1 had an ELISA OD450 of 0.0604 OD450. B2 yielded an ELISA OD450 of 0.0638 OD450.

In turn, B3 returned an ELISA OD450 of 0.0698 OD450.

Source of the values: patent US20200199217A1.
